The values below come from patent US20140343124A1 (ROYAL INSTITUTION FOR THE ADVANCEMENT OF LEARNING MCGILL …, published 2014).

Test [1] concerns the target actin (actin stress fibers / actin cytoskeleton of glioma cells). Put plainly: cell-based or functional assay.
The next test has as its target T1, MYC-LC2 (UniProt P78559 2567-2803, limits assumed).
T1 construct: domain: light chain (LC2) subunit; also called LC2 (heterologously expressed, MYC-tagged); not shown: MYC tag
T1 sequence (looked up): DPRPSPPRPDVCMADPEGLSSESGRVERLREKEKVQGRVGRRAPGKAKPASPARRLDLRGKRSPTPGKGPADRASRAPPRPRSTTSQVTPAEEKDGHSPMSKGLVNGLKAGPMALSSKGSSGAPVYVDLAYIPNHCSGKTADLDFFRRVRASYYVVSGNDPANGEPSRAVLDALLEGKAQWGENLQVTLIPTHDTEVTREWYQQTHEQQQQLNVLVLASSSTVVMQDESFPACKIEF
As to the kind of experiment: co-immunoprecipitation of heterologously expressed proteins.

As for DRR^ΔPEPE (from UniProt O95990 1-144), the fold decrease in invasiveness in a 3D invasion assay in test [1] worked out at 3 fold.

B1: DRR^ΔHRE (other, UniProt O95990 1-144, looked up)
chain: MYSEIQRERADIGGLMARPEYREWNPELIKPKKLLNPVKASRSHQELAAALLMNHRRGLGVDSKPELQRVLEHRRRNQLIKKKKEELEAKRLQCPFEQELLRRQQRLNQLEKPPEKEEDHAPEFIKVRENLRRIATLTSEEREL
notes: also called non-LC2 form of DRR
With B1, in the test with MYC-LC2, the binding result is given as “no binding”.
